# Test results published in US12559863B2, “Macrocyclic modulators of disease associated protein misfolding and aggregation” (RESQ BIOTECH, priority 2017, dated 2026).
# Biological target: T1, Aβ42-GFP (Homo sapiens, UniProt P05067)
# T1 construct: a chimeric fusion of the human Aβ(1-42) peptide (Aβ42) with GFP; expressed in transfected cells; host or cells: E. coli BL21(DE3)
# Experiment: High-throughput sequencing of pSICLOPPS vectors isolated after bacterial sorting for enhanced Aβ42-GFP fluorescence
# Conditions: for Reads/Total TXXXR reads (%) / Reads/Total pentapeptide reads (%) / Reads/Total peptide reads (%): after the second round of bacterial sorting; for Reads/Total TXXXR reads (%): relative to total TXXXR reads; for Reads/Total pentapeptide reads (%): relative to total pentapeptide reads; for Reads/Total peptide reads (%): relative to total peptide reads; for Number of reads: high-throughput sequencing of isolated pSICLOPPS-NuX1X2X3-X5 vectors after the second round of bacterial sorting for enhanced Aβ42-GFP fluorescence, selected cyclo-TXXXR pentapeptides
# Source text: On the other hand, very few bioactive sequences resembling AβC5-34 should exist. […] The peptide-encoding vectors contained in these clones were isolated and the peptide-encoding region of approximately 5.6 million of these plasmids was sequenced using an Ion Torrent high-throughput sequencing platform. […] First, pentapeptides were the dominant peptide species within the sorted pool (FIG. 12D), in agreement with previous observations (FIG. 8G). Second, the most prevalent motif among the selected pentapeptide sequences were TXXXR pentapeptides (˜47% of the selected pentapeptide-encoding pSICLOPPS plasmids; ˜42% of the unique selected pentapeptide sequences) (Table 1), in accordance with previous observations (FIG. 8G). […] At position 2, Thr, Ala, and Val were preferred, while aromatic residues (Phe, Trp, Tyr) were completely excluded from the selected TXXXR peptide pool, in full agreement with our site-directed mutagenesis studies. At the highly variable position 3, the complete absence of the negatively charged amino acids Glu and Asp among the selected sequences was notable (FIG. 12E). […] It is noteworthy, that Lys and Gln residues were practically absent from all positions, while the β sheet-breaking amino acid Pro that is typically included in designed peptide-based inhibitors of amyloid aggregation appeared with strikingly low frequencies (FIG. 12E).
# Electrocompetent E. coli BL21(DE3) cells (Novagen, USA) carrying either the expression vector pETSOD1(A4V)-GFP, which produces SOD1(A4V)-GFP under control of the strong bacteriophage T7 promoter, or pETAβ42-GFP, which produces Aβ42-GFP under control of the T7 promoter, were co-transformed with the combined pSICLOPPS-NuX1X2X3-X5 vector library. Approximately 10^8 transformants carrying both the vector library and either pETSOD1(A4V)-GFP or pETAβ42-GFP vectors were harvested, pooled together, and grown in Luria-Bertani (LB) liquid medium containing either 0.005% (pETSOD1(A4F)-GFP) or 0.002% (pETAβ42-GFP) L-arabinose—the inducer of cyclic peptide production—at 37° C. with shaking. When the optical density at 600 nm (OD600) of the bacterial culture was about 0.5, 0.01 (pETSOD1(A4F)-GFP) or 0.1 (pETAβ42-GFP) mM isopropyl-β-D-thiogalactoside (IPTG) was added to the medium to induce overexpression of the reporter. […] The isolated cells were re-grown and screened for additional rounds in an identical manner until the desired enrichment in high-fluorescence clones was achieved.
# For the characterization of the initial libraries, a combined pSICLOPPS-NuX1X2X3-X5 vector library was prepared containing approximately equal amounts of each one of the tetra-, penta- and hexapeptide sub-libraries. These samples were digested with NcoI and BsrGI and the resulting ˜250 bp product that contained the variable peptide-encoding region was isolated. High-throughput sequencing analysis was performed using an Ion Torrent high-throughput sequencing platform. From the obtained data, all the sequences with mismatches outside of the variable peptide-encoding region were removed, and only the 12-, 15- or 18-bp-long peptide-encoding sequences were subjected to further analysis. The libraries of the selected cyclic peptides that enhance either SOD1(A4V)-GFP or Aβ42-GFP fluorescence were sequenced in a similar manner, with the only exception being that all sequences including stop codons were discarded from subsequent analysis.
Substance,Reads/Total TXXXR reads (%),Reads/Total pentapeptide reads (%),Reads/Total peptide reads (%),Number of reads
AβC5-130 (TAYHR; cyclic),0.136,0.064,0.057,"2,594"
AβC5-136 (TALHR; cyclic),0.107,0.050,0.045,"2,026"
AβC5-139 (TTSPR; cyclic),0.100,0.047,0.042,"1,904"
AβC5-146 (TTWSR; cyclic),0.085,0.040,0.036,"1,612"
AβC5-147 (TAMHR; cyclic),0.085,0.040,0.036,"1,611"
AβC5-155 (TSLDR; cyclic),0.066,0.031,0.028,"1,251"
AβC5-158 (TTGAR; cyclic),0.062,0.029,0.026,"1,172"
AβC5-162 (TSVWR; cyclic),0.058,0.027,0.024,"1,094"
AβC5-173 (TTHAR; cyclic),0.050,0.023,0.021,953
AβC5-176 (TAGWR; cyclic),0.050,0.023,0.021,945
AβC5-177 (TATAR; cyclic),0.049,0.023,0.020,925
AβC5-184 (TVLAR; cyclic),0.043,0.020,0.018,818
AβC5-185 (TTFNR; cyclic),0.042,0.020,0.018,800
AβC5-188 (TGMRR; cyclic),0.040,0.019,0.017,768
AβC5-190 (TLCLR; cyclic),0.039,0.018,0.016,739
AβC5-215 (TTPWR; cyclic),0.028,0.013,0.012,524
AβC5-218 (TVLHR; cyclic),0.026,0.012,0.011,497
AβC5-223 (TGLDR; cyclic),0.024,0.011,0.010,464
AβC5-239 (TTMHR; cyclic),0.020,0.009,0.008,384
AβC5-242 (TTSTR; cyclic),0.020,0.009,0.008,376
AβC5-244 (TTRVR; cyclic),0.019,0.009,0.008,366
